Measurements: patent US12269859B2, “Synthetic immune receptors and methods of use thereof” (Angeles Therapeutics, Inc., priority 2016, dated 2025)

B1: 020717-P08 (protein)
chain: MALPVTALLLPLALLLHAARPDILLTQSPATLSLSPGERATLSCKASQNVGTNVAWYQQKPGQPPKLLIYSATYRNSGIPARFSGSGSGTEFTLTITNVQSKDLADYFYFCQYNRYPYTSGGGTKLEIKRLEGKPIPNPLLGLDSTGSGEDLKNVFPPEVAVFEPSKAEIAHTQKATLVCLATGFYPDHVELSWWVNGKEVHSGVCTDPQPLKEQPALNDSRYCLSSRLRVSATFWQNPRNHFRCQVQFYGLSENDEWTQDRAKPVTQIVSAEAWGRADCGITSASYHQGVLSATILYEILLGKATLYAVLVSALVLMAMVKRKDSRGRAKRSGSGATNFSLLKQAGDVEENPGPTSMDWIWRILFLVGAATGAHSFEQVQLVESGGGLVEPGGSLRLSCMSGYAFSSYWMNWVRQMPGKGLEWMGQIYPGDGDTNYNGKFKGRVTITADESTSTAYMELSSLKAEDTAVYFCARKTISSVVDFYFDNWGQGTLVTVSSAEPKSPDKTHTCPPCPKDPKTREQKLISEEDLGSGIQNPDPAVYQLRDSKSSDKSVCLFTDFDSQTNVSQSKDSDVYITDKCVLDMRSMDFKSNSAVAWSNKSDFACANAFNNSIIPEDTFFPSSDVPCDVKLVEKSFETDTNLNFQNLSVIGFRILLLKVAGFNLLMTLRLWSSRAKRSGSGVKQTLNFDLLKLAGDVESNPGPSRGHMTEYKPTVRLATRDDVPRAVRTLAAAFADYPATRHTVDPDRHIERVTELQELFLTRVGLDIGKVWVADDGAAVAVWTTPESVEAGAVFAEIGPRMAELSGSRLAAQQQMEGLLAPHRPKEPAWFLATVGVSPDHQGKGLGSAVVLPGVEAAERAGVPAFLETSAPRNLPFYERLGFTVTADVEVPEGPRTWCMTRKPGA
B2: 020817-U02 (protein)
chain: MALPVTALLLPLALLLHAARPLEGKPIPNPLLGLDSTGSGEDLKNVFPPEVAVFEPSKAEIAHTQKATLVCLATGFYPDHVELSWWVNGKEVHSGVCTDPQPLKEQPALNDSRYCLSSRLRVSATFWQNPRNHFRCQVQFYGLSENDEWTQDRAKPVTQIVSAEAWGRADCGITSASYHQGVLSATILYEILLGKATLYAVLVSALVLMAMVKRKDSRGRAKRSGSGATNFSLLKQAGDVEENPGPTSMALPVTALLLPLALLLHAARPDILLTQSPATLSLSPGERATLSCRASQSVDNYGISFMNWYQQKPGQPPKLLIYAASNQGSGIPSRFSGSGSGTDFTLTISSLEPEDFAMYFCQQSNEVPRTFGGGTKLEIKGGGGSGGGGSGGGGSQVQLVESGGGLVEPGGSLRLSCMSGYAFSSSWMNWVRQMPGKGLEWMGRIYPGDGDTNYNGKFKERVTITADESTSTAYMELSSLKAEDTAVYFCARSEYWGNYWAMDYWGQGTLVTVSSTREQKLISEEDGSGIQNPDPAVYQLRDSKSSDKSVCLFTDFDSQTNVSQSKDSDVYITDKCVLDMRSMDFKSNSAVAWSNKSDFACANAFNNSIIPEDTFFPSSDVPCDVKLVEKSFETDTNLNFQNLSVIGFRILLLKVAGFNLLMTLRLWSSRAKRSGSGVKQTLNFDLLKLAGDVESNPGPSRGHMTEYKPTVRLATRDDVPRAVRTLAAAFADYPATRHTVDPDRHIERVTELQELFLTRVGLDIGKVWVADDGAAVAVWTTPESVEAGAVFAEIGPRMAELSGSRLAAQQQMEGLLAPHRPKEPAWFLATVGVSPDHQGKGLGSAVVLPGVEAAERAGVPAFLETSAPRNLPFYERLGFTVTADVEVPEGPRTWCMTRKPGA
B3: 070517-G02 (protein)
chain: MALPVTALLLPLALLLHAARPLETPFPSLAPPIMLLVDGKQQMVVVCLVLDVAPPGLDSPIWFSAGNGSALDAFTYGPSPATDGTWTNLAHLSLPSEELASWEPLVCHTGPGAEGHSRSTQPMHLSGEASTARTCPQEPLRGTPGGALWLGVLRLLLFKLLLFDLLLTCSCLCDPAGPLPSPATTTRLRALGSHRLHPATETGGREATSSPRPQPRDRRWGDTPPGRKPGSPVRAKRSGSGVKQTLNFDLLKLAGDVESNPGPTSTMALPVTALLLPLALLLHAARPDIQMTQSPSSLSASVGDRVTITCKASDHINNWLAWYQQKPGQAPKLLIYGATTLETGVPSRFSGSGSGTDYTLTISSLQPEDFATYYCQQSWNTPWTFGQGTKLEIKRGGGGSGGGGSGGGGSQVQLQQPGAELVKPGASVKMSCKASGYAFSSYWINWMKQKPGQGLEWIGQIYPGDGDTNYNGKFKGRATLTADTSSSTAYMQLSSLTSEDSAVYFCARSITTVVGCAMDYWGQGTSVTVSSTRGKPIPNPLLGLDSTGSGEDLKNVFPPEVAVFEPSEAEISHTQKATLVCLATGFYPDHVELSWWVNGKEVHSGVCTDPQPLKEQPALNDSRYCLSSRLRVSATFWQNPRNHFRCQVQFYGLSENDEWTQDRAKPVTQIVSAEAWGRADCGFTSESYQQGVLSATILYEILLGKATLYAVLVSALVLMAMVKRKDSRGRAKRSGSGATNFSLLKQAGDVEENPGPSRGHMTEYKPTVRLATRDDVPRAVRTLAAAFADYPATRHTVDPDRHIERVTELQELFLTRVGLDIGKVWVADDGAAVAVWTTPESVEAGAVFAEIGPRMAELSGSRLAAQQQMEGLLAPHRPKEPAWFLATVGVSPDHQGKGLGSAVVLPGVEAAERAGVPAFLETSAPRNLPFYERLGFTVTADVEVPEGPRTWCMTRKPGA
B4: 070517-H02 (protein)
chain: MALPVTALLLPLALLLHAARPLEGKPIPNPLLGLDSTGSGEDLKNVFPPEVAVFEPSKAEIAHTQKATLVCLATGFYPDHVELSWWVNGKEVHSGVCTDPQPLKEQPALNDSRYCLSSRLRVSATFWQNPRNHFRCQVQFYGLSENDEWTQDRAKPVTQIVSAEAWGRADCGITSASYHQGVLSATILYEILLGKATLYAVLVSALVLMAMVKRKDSRGRAKRSGSGATNFSLLKQAGDVEENPGPTSMALPVTALLLPLALLLHAARPDIQMTQSPSSLSASVGDRVTITCKASDHINNWLAWYQQKPGQAPKLLIYGATTLETGVPSRFSGSGSGTDYTLTISSLQPEDFATYYCQQSWNTPWTFGQGTKLEIKRGGGGSGGGGSGGGGSQVQLQQPGAELVKPGASVKMSCKASGYAFSSYWINWMKQKPGQGLEWIGQIYPGDGDTNYNGKFKGRATLTADTSSSTAYMQLSSLTSEDSAVYFCARSITTVVGCAMDYWGQGTSVTVSSTREQKLISEEDGSGIQNPDPAVYQLRDSKSSDKSVCLFTDFDSQTNVSQSKDSDVYITDKCVLDMRSMDFKSNSAVAWSNKSDFACANAFNNSIIPEDTFFPSSDVPCDVKLVEKSFETDTNLNFQNLSVIGFRILLLKVAGFNLLMTLRLWSSRAKRSGSGVKQTLNFDLLKLAGDVESNPGPSRGHMTEYKPTVRLATRDDVPRAVRTLAAAFADYPATRHTVDPDRHIERVTELQELFLTRVGLDIGKVWVADDGAAVAVWTTPESVEAGAVFAEIGPRMAELSGSRLAAQQQMEGLLAPHRPKEPAWFLATVGVSPDHQGKGLGSAVVLPGVEAAERAGVPAFLETSAPRNLPFYERLGFTVTADVEVPEGPRTWCMTRKPGA
B5: 022817-K08 (protein)
chain: MALPVTALLLPLALLLHAARPQIVLTQSPATLSASPGEKATMTCSASSGVNYMHWYQQKPGTSPKRWIYDTDKTASGVPARFSGSGSGTSYSLTISSMEAEDAATYYCHQRGSYTFGGGTKLEIKLEEQKLISEEDLGSGEDLKNVFPPEVAVFEPSKAEIAHTQKATLVCLATGFYPDHVELSWWVNGKEVHSGVCTDPQPLKEQPALNDSRYCLSSRLRVSATFWQNPRNHFRCQVQFYGLSENDEWTQDRAKPVTQIVSAEAWGRADCGITSASYHQGVLSATILYEILLGKATLYAVLVSALVLMAMVKRKDSRGRAKRSGSGATNFSLLKQAGDVEENPGPTSMDWIWRILFLVGAATGAHSFEQVQLEQPGAEVVKPGASVKVSCKTSGYTFTSNWMHWVKQTPGKGLEWIGEIDPSDSYTNYNQKFDGKAKLTVDKSSSTAYMEVSDLTAEDSATYYCARGSNPYYYAMDYWGQGTSVTVSSTREQKLISEEDLGSGIQNPDPAVYQLRDSKSSDKSVCLFTDFDSQTNVSQSKDSDVYITDKCVLDMRSMDFKSNSAVAWSNKSDFACANAFNNSIIPEDTFFPSSDVPCDVKLVEKSFETDTNLNFQNLSVIGFRILLLKVAGFNLLMTLRLWSSRAKRSGSGVKQTLNFDLLKLAGDVESNPGPSRGHMTEYKPTVRLATRDDVPRAVRTLAAAFADYPATRHTVDPDRHIERVTELQELFLTRVGLDIGKVWVADDGAAVAVWTTPESVEAGAVFAEIGPRMAELSGSRLAAQQQMEGLLAPHRPKEPAWFLATVGVSPDHQGKGLGSAVVLPGVEAAERAGVPAFLETSAPRNLPFYERLGFTVTADVEVPEGPRTWCMTRKPGA
B6: 022817-J01 (protein)
chain: MALPVTALLLPLALLLHAARPLEGKPIPNPLLGLDSTGSGEDLKNVFPPEVAVFEPSKAEIAHTQKATLVCLATGFYPDHVELSWWVNGKEVHSGVCTDPQPLKEQPALNDSRYCLSSRLRVSATFWQNPRNHFRCQVQFYGLSENDEWTQDRAKPVTQIVSAEAWGRADCGITSASYHQGVLSATILYEILLGKATLYAVLVSALVLMAMVKRKDSRGRAKRSGSGATNFSLLKQAGDVEENPGPTSMALPVTALLLPLALLLHAARPQIVLTQSPATLSASPGEKATMTCSASSGVNYMHWYQQKPGTSPKRWIYDTDKTASGVPARFSGSGSGTSYSLTISSMEAEDAATYYCHQRGSYTFGGGTKLEIKGGGGSGGGGSGGGGSQVQLEQPGAEVVKPGASVKVSCKTSGYTFTSNWMHWVKQTPGKGLEWIGEIDPSDSYTNYNQKFDGKAKLTVDKSSSTAYMEVSDLTAEDSATYYCARGSNPYYYAMDYWGQGTSVTVSSTREQKLISEEDGSGIQNPDPAVYQLRDSKSSDKSVCLFTDFDSQTNVSQSKDSDVYITDKCVLDMRSMDFKSNSAVAWSNKSDFACANAFNNSIIPEDTFFPSSDVPCDVKLVEKSFETDTNLNFQNLSVIGFRILLLKVAGFNLLMTLRLWSSRAKRSGSGVKQTLNFDLLKLAGDVESNPGPSRGHMTEYKPTVRLATRDDVPRAVRTLAAAFADYPATRHTVDPDRHIERVTELQELFLTRVGLDIGKVWVADDGAAVAVWTTPESVEAGAVFAEIGPRMAELSGSRLAAQQQMEGLLAPHRPKEPAWFLATVGVSPDHQGKGLGSAVVLPGVEAAERAGVPAFLETSAPRNLPFYERLGFTVTADVEVPEGPRTWCMTRKPGA

Tested on: target antigen-expressing cell line
Assay: Jurkat NFAT-GFP assay, coculture with target cell lines expressing the respective target antigen (summary Table 10A)
Assay type: cell-based, human
Design: key: The signs +/−, +, 2+ etc. after the name of the cell lines indicate the relative degree of positivity on the Jurkat-NFAT-GFP assay as measured by the % GFP positive cells; +: relative degree of positivity on the Jurkat-NFAT-GFP assay as measured by the % GFP positive cells; 2+: relative degree of positivity on the Jurkat-NFAT-GFP assay as measured by the % GFP positive cells
Conditions: relative % GFP positive cells; for NFAT-GFP ASSAY Positive Cell lines: RAJI: SIR-expressing Jurkat-NFAT-GFP cells cocultured with RAJI; for NFAT-GFP ASSAY Positive Cell lines: NALM6: SIR-expressing Jurkat-NFAT-GFP cells cocultured with NALM6
Method in brief: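 Jurkat cells carrying an NFAT-site IL-2 promoter driving GFP were lentivirally transduced with SIRs, puromycin-selected, then cocultured with antigen-expressing target cells at E:T about 1:2 for about 4–18 hours. GFP induction was read by flow cytometry as % GFP-positive cells versus parental Jurkat-NFAT-GFP.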

Molecule | NFAT-GFP ASSAY Positive Cell lines: RAJI | NFAT-GFP ASSAY Positive Cell lines: NALM6
B1 | RAJI (+) | 
B2 | RAJI (+), NALM6 | (+/−)
B3 | RAJI (+), NALM6 | (+/−)
B4 | RAJI (2+), NALM6 | (+)
B5 | RAJI (+), NALM6 | (+/−)
B6 | RAJI (+), NALM6 | (+/−)
